Data taken from the RNAGym collection of RNA variant scans (doi:10.7554/elife.80360).

B1: HDV Ribozyme (parent)
chain: GGCCGGCAUGGUCCCAGCCUCCUCGCUGGCGCCGGCUGGGCAACAUUCCGAGGGGACCGUCCCCUCGGUAAUGGCGAAUGGGACCCA

Variants of: B1
Assay: self-cleavage, relative activity (ratio to wild type); higher = more cleavage; co-transcriptional

In order of falling self-cleavage:
1. G1U U37A  0.584
2. G1U U79G  0.539
3. G1U G40C  0.491
4. G1U G5A  0.445
5. G1U A71G  0.429
6. G1U C30A  0.426
7. G1U A71U  0.424
8. G1U G6A  0.41
9. G1U U20C  0.401
10. G1C C36U  0.394
11. G1U A70U  0.381
12. G2A U47G  0.374
13. G1U C13G  0.369
14. G1U G31A  0.364
15. G1U G54C  0.361
16. G1U C22U  0.356
17. G1U G25A  0.354
18. G1C C44A  0.353
19. G2A G53C  0.348
20. G1U G17C  0.341
21. G1U C7G  0.332
22. G1U C61A  0.326
23. G1U C61G  0.326
24. G1U C58G  0.318
25. G1U U37G  0.31
26. G1U G67C  0.305
27. G1U G10C  0.292
28. G1U G11C  0.288
29. G1U G68U  0.287
30. G1U G54A  0.277
31. G2A C85A  0.268
32. G1U U27C  0.26
33. G1U U46G  0.259
34. G1U C41G  0.249
35. G1C U60A  0.237
36. G1U G73A  0.237
37. G2A C58A  0.234
38. G1U C41U  0.228
39. G2A A70U  0.228
40. G2A U69A  0.22
41. G2A C85G  0.217
42. G1U C22G  0.214
43. G1C G35A  0.208
44. G2A C57U  0.203
45. G1C G81U  0.192
46. G1U G25C  0.17
47. G1U C7A  0.169
48. G2A G53A  0.168
49. G1C G10A  0.166
50. G1C A87C  0.156
51. G1U G34C  0.155
52. G1C U12G  0.145
53. G2A G52A  0.143
54. G2U A71G  0.141
55. G2U G68U  0.134
56. G1C G11C  0.131
57. G1C G54A  0.131
58. G2C A42G  0.13
59. G1C U65C  0.128
60. G1C C13U  0.125
61. G1C A8G  0.123
62. G2A C84U  0.119
63. G1C G81C  0.119
64. G2A A83U  0.119
65. G2U C49A  0.118
66. G2C C30U  0.117
67. G2A C58U  0.113
68. G2U G76A  0.112
69. G2A G52C  0.112
70. G2C A71U  0.11
71. G2U C58U  0.109
72. G2A A8C  0.106
73. G2A U27A  0.0997
74. G1C G10C  0.095
75. G1C C58U  0.0923
76. G1A U79G  0.0923
77. G2C C66A  0.0913
78. G2A C62U  0.0886
79. G1C C15U  0.0831
80. G2C C24A  0.0791
81. G2U U65G  0.0782
82. G2A U9A  0.0773
83. G2U C18U  0.0755
84. G2U A87U  0.0747
85. G1C U20C  0.0723
86. G2C A71C  0.0723
87. G2C C7G  0.0692
88. G1C C44G  0.0692
89. G2C G73U  0.0683
90. G2C G53U  0.0665
91. G1C G11A  0.0652
92. G2A C30U  0.0639
93. G1C C44U  0.0615
94. G2U C41A  0.0589
95. G2C U37A  0.0583
96. G2U C44A  0.0583
97. G2C G5A  0.0563
98. G2A C44U  0.0554
99. G2C A8G  0.0554
100. G2U A45U  0.0554
101. G2U G39U  0.0543
102. G2A C21G  0.0528
103. G2C C33A  0.0528
104. G2A C84A  0.0519
105. G2C C13G  0.0504
106. G2A A78G  0.0504
107. G2A G34C  0.0489
108. G1C C24U  0.0489
109. G2U G73A  0.0484
110. G1C G80C  0.0475
111. G2U G50A  0.047
112. G2U C14U  0.0468
113. G2C G82A  0.0462
114. G2A G5U  0.0453
115. G2A A8U  0.0432
116. G2A C30G  0.0432
117. G2A A78C  0.0432
118. G2U C33A  0.043
119. G2U A16G  0.0426
120. G1C G73U  0.0426
121. G2U U65C  0.0391
122. G2A C33G  0.0378
123. G2A G38U  0.0373
124. G2C A16C  0.0361
125. G2U C14G  0.0354
126. G2U U12G  0.0346
127. G2C C18A  0.0346
128. G2U G35U  0.0318
129. G2C C63G  0.0314
130. G2U G35A  0.0308
131. G2C A43U  0.0297
132. G2A C19A  0.0292
133. G2A U47C  0.0292
134. G2C C7A  0.0268
135. G2C G67U  0.026
136. G2U U12C  0.0241
137. G2U A16U  0.0237
138. G2U G28C  0.0234
139. G2U U46G  0.0231
140. G2U G17C  0.0228
141. G2U C3U  0.0228
142. G2U C3G  0.0222
143. G2U C84A  0.0219
144. G2U U46A  0.0187
145. G2C C84U  0.0181
146. G2U G50C  0.0179
147. G2U G31C  0.0155
148. G2A C30A  0.0152
149. G2U G40U  0.0132
150. G2U G39A  0.00989
151. G2U C33G  0.00889
152. G2C U23C  0
153. G2A U27G  0
154. G2C U27A  0
155. G1C G35C  0
156. G1C U12A  0
157. G1C G28C  0
158. G1C U27C  0
159. G1C U20G  0
160. G2U C75A  0
161. G1C C75A  0
162. G2C A78C  0
163. G2C C21A  0
164. G1C G81A  0
165. G2U C44U  0
166. G2C C63U  0
167. G2C A43G  0
